Reference: US20140363428A1 (Chugai, published 2014)
Residue numbers refer to the chain shown, from its start. In names and notes the source's numbering stands.

B1: Fv-4-F11 (antibody, human IgG1, kappa)
heavy: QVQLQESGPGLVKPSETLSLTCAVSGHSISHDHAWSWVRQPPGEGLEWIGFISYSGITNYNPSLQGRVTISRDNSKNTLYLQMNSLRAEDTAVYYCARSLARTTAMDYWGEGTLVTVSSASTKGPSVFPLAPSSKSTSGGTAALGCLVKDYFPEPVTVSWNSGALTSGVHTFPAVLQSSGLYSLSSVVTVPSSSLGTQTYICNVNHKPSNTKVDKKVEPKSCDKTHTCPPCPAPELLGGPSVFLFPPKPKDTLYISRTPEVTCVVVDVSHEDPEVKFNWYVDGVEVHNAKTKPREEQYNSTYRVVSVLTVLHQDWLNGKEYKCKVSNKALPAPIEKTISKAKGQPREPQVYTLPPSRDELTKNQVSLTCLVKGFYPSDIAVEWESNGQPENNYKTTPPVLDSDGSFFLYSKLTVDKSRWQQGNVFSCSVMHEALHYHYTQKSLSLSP
light: DIQMTQSPSSLSASVGDSVTITCQASTDISSHLNWYQQKPGKAPELLIYYGSHLLSGVPSRFSGSGSGTDFTFTISSLEAEDAATYYCGQGNRLPYTFGQGTKVEIERTVAAPSVFIFPPSDEQLKSGTASVVCLLNNFYPREAKVQWKVDNALQSGNSQESVTEQDSKDSTYSLSSTLTLSKADYEKHKVYACEVTHQGLSSPVTKSFNRGEC
notes: M252Y/N434Y (EU)
B2: Fv-4-F1077 (antibody, human IgG1, kappa)
heavy: QVQLQESGPGLVKPSETLSLTCAVSGHSISHDHAWSWVRQPPGEGLEWIGFISYSGITNYNPSLQGRVTISRDNSKNTLYLQMNSLRAEDTAVYYCARSLARTTAMDYWGEGTLVTVSSASTKGPSVFPLAPSSKSTSGGTAALGCLVKDYFPEPVTVSWNSGALTSGVHTFPAVLQSSGLYSLSSVVTVPSSSLGTQTYICNVNHKPSNTKVDKKVEPKSCDKTHTCPPCPAPELLGGPSVFLFPPKPNDTLYISRTPEVTCVVVDVSHEDPEVKFNWYVDGVEVHNAKTKPREEQYNSTYRVVSVLTVLHQDWLNGKEYKCKVSNKALPAPIEKTISKAKGQPREPQVYTLPPSRDELTKNQVSLTCLVKGFYPSDIAVEWESNGQPENNYKTTPPVLDSDGSFFLYSKLTVDKSRWQQGNVFSCSVMHEALHYHYTQKSLSLSP
light: B1 light
notes: additional N-glycosylation found (++)
B3: Fv-4-F1078 (antibody, human IgG1, kappa)
heavy: B2 heavy with N250K, E382N, E384S
light: B1 light
B4: Fv-4-F1079 (antibody, human IgG1, kappa)
heavy: B2 heavy with N250K, E384N, N386S
light: B1 light
B5: Fv-4-F1080 (antibody, human IgG1, kappa)
heavy: B2 heavy with N250K, S426N
light: B1 light
notes: as for B2
B6: Fv-4-F1081 (antibody, human IgG1, kappa)
heavy: B2 heavy with N250K, Y438N, Q440T
light: B1 light
notes: as for B2
B7: Fv-4-F1082 (antibody, human IgG1, kappa)
heavy: B2 heavy with N250K, Q440N
light: B1 light
notes: additional N-glycosylation found (+)
B8: Fv-4-F1083 (antibody)
heavy: B2 heavy with N250K, S442N
light: B1 light
B9: F1714 (antibody)
heavy: B2 heavy with L237R, S241K, N250K, Y254M, H435D, Y438V, Q440R, S442E
light: B1 light
B10: F1715 (antibody)
heavy: B2 heavy with L237R, S241K, N250K, Y254M, H435D, Y438V, Q440R, S442D
light: B1 light
B11: F1716 (antibody)
heavy: B2 heavy with L237R, S241K, N250K, Y254M, H435D, Y438V, Q440K, S442E
light: B1 light
B12: F1718 (antibody)
heavy: B2 heavy with N250K, Y254M, Y438V, Q440R, S442E
light: B1 light
notes: S440F as printed
B13: F1719 (antibody)
heavy: B2 heavy with N250K, Y254M, Y438V, Q440R, S442D
light: B1 light
B14: F1720 (antibody)
heavy: B2 heavy with N250K, Y254M, Y438V, Q440K, S442E
light: B1 light
B15: F1723 (antibody)
heavy: B2 heavy with N250K, Y254M, H435D, Y438V, Q440R, S442D
light: B1 light
B16: F1724 (antibody)
heavy: B2 heavy with N250K, Y254M, H435D, Y438V, Q440K, S442E
light: B1 light
B17: F1725 (antibody)
heavy: B2 heavy with N250K, Y254M, H435D, Y438V, Q440K, S442D
light: B1 light
B18: F1749 (antibody)
heavy: B2 heavy with L237R, S241K, N250K, Y254M, Y438T, Q440R, S442D
light: B1 light
B19: F1750 (antibody)
heavy: B2 heavy with L237R, S241K, N250K, Y254M, Y438T, Q440K, S442E
light: B1 light
B20: F1751 (antibody)
heavy: B2 heavy with L237R, S241K, N250K, Y254M, Y438T, Q440K, S442D
light: B1 light
B21: F1752 (antibody)
heavy: B2 heavy with L237R, S241K, N250K, Y254M, H435D, Y438T, Q440R, S442E
light: B1 light
B22: F1753 (antibody)
heavy: B2 heavy with L237R, S241K, N250K, Y254M, H435D, Y438T, Q440R, S442D
light: B1 light
B23: F1754 (antibody)
heavy: B2 heavy with L237R, S241K, N250K, Y254M, H435D, Y438T, Q440K, S442E
light: B1 light
B24: F1756 (antibody)
heavy: B2 heavy with N250K, Y254M, Y438T, Q440R, S442E
light: B1 light
B25: F1757 (antibody)
heavy: B2 heavy with N250K, Y254M, Y438T, Q440R, S442D
light: B1 light
B26: F1758 (antibody)
heavy: B2 heavy with N250K, Y254M, Y438T, Q440K, S442E
light: B1 light
B27: F1759 (antibody)
heavy: B2 heavy with N250K, Y254M, Y438T, Q440K, S442D
light: B1 light
B28: F1761 (antibody)
heavy: B2 heavy with N250K, Y254M, H435D, Y438T, Q440R, S442D
light: B1 light
B29: F1763 (antibody)
heavy: B2 heavy with N250K, Y254M, H435D, Y438T, Q440K, S442D
light: B1 light

What follows are binders tested against T1, soluble human FcRn (human, UniProt P55899 24-297; P61769 21-119) (assay: SPR (Biacore), pH 7.0).
T1 construct: Heterodimer of alpha chain and beta2-microglobulin; also called hFcRn
T1 sequence (P55899 24-297 limits assumed, chain 1 of 2): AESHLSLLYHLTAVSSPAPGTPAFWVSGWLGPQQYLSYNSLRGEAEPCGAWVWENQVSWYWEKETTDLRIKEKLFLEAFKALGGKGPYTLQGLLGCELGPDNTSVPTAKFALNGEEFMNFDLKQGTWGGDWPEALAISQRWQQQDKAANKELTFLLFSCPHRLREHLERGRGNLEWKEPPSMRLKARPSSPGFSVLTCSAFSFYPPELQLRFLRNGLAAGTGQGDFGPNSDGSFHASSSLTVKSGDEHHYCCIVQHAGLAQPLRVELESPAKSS
T1 sequence (P61769 21-119 limits assumed, chain 2 of 2): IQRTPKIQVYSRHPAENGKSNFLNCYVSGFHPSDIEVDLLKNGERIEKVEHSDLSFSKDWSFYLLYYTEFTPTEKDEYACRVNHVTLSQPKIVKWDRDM

Binder	Kd [µM]
B1	0.33
B2	2
B3	0.47
B4	0.34
B5	0.32
B6	0.62
B7	0.28
B8	0.35

These binders were tested against T1, soluble human FcRn (assay: SPR (Biacore), pH 6.0).

Binder	Kd [µM]
B9	0.11
B10	0.11
B11	0.096
B12	0.061
B13	0.052
B14	0.045
B15	0.096
B16	0.099
B17	0.093
B18	0.087
B19	0.07
B20	0.069
B21	0.15
B22	0.13
B23	0.12
B24	0.08
B25	0.072
B26	0.07
B27	0.063
B28	0.13
B29	0.11
